Results as given in FireProtDB (doi:10.1016/j.bbapap.2007.05.016).
Values joined by “and” are separate entries in the source; they are usually repeats but may differ in a detail not shown here. Equal values may be shown once.

B1: Chitosanase, P33665 (parent)
chain: MHSQHRTARIALAVVLTAIPASLATAGVGYASTQASTAVKAGAGLDDPHKKEIAMELVSSAENSSLDWKAQYKYIEDIGDGRGYTGGIIGFCSGTGDMLELVQHYTDLEPGNILAKYLPALKKVNGSASHSGLGTPFTKDWATAAKDTVFQQAQNDERDRVYFDPAVSQAKADGLRALGQFAYYDAIVMHGPGNDPTSFGGIRKTAMKKARTPAQGGDETTYLNAFLDARKAAMLTEAAHDDTSRVDTEQRVFLKAGNLDLNPPLKWKTYGDPYVINS

Variants of: B1
Conditions: Streptomyces sp. (strain N174), pH 4.5, Thermal, Fluorescence, reversible: No, structure 1CHK, whole UniProt chain shown

Variant | Tm (Sodium acetate 50 mM) [°C] | change of melting temperature, mutant - wild type (higher = more stable) (Sodium acetate 50 mM) [°C] | change of melting temperature, mutant - wild type (higher = more stable) (Sodium acetate 100 mM)
MHSQHRTARIALAVVLTAIPASLATAGVGYASTQASTAVKAGAGLDDPHKKEIAMELVSSAENSSLDWKAQYKYIEDIGDGRGYTGGIIGFCSGTGDMLELVQHYTDLEPGNILAKYLPALKKVNGSASHSGLGTPFTKDWATLAKDTVFQQAQNDERDRVYFDPAVSQAKADGLRALGQFAYYDAIVMHGPGNDPTSFGGIRKTAMKKARTPAQGGDETTYLNAFLDARKAAMLTEAAHDDTSRVDTEQRVFLKAGNLDLNPPLKWKTYGDPYVINS [A144L] | 48 | -5.5 | -5.3 °C and -6.2 °C and -7 °C
MHSQHRTARIALAVVLTAIPASLATAGVGYASTQASTAVKAGAGLDDPHKKEIAMELVSSAENSSLDWKAQYKYIEDIGDGRGYTGGIIGFCSGTGDMLELVQHYTDLEPGNILAKYLPALKKVNGSASHSGLGTPFTKDWATAAKDTVFQQAQNDERDRVYFDPAVSQAKADGLRALGQFAYYDAIVMHGPGNDPTSFGGIRRTAMKKARTPAQGGDETTYLNAFLDARKAAMLTEAAHDDTSRVDTEQRVFLKAGNLDLNPPLKWKTYGDPYVINS [K204R] | – | – | -1 °C and -0.2 °C and -0.9 °C
